Measurements taken from patent US20250101096A1 (SERA PROGNOSTICS, published 2025).
Residue numbers refer to the chain shown, from its start. Blank lines part the entries; values can stand above or below the binder they belong to.

What was measured:
[1] = target: T1, human insulin-like growth factor binding protein 4 (IBP4) (human, UniProt P22692 22-258); assay: SPR, format and IBP4 form not stated
T1 construct: also called IBP4 protein; IGFBP4
T1 sequence: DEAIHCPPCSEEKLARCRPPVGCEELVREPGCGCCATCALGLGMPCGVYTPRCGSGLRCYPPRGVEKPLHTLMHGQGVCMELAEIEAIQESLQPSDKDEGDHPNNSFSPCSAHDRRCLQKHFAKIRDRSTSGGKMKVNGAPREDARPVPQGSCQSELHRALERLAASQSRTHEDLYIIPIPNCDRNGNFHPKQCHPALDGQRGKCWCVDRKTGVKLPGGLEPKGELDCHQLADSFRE

[2] = target: T1, human insulin-like growth factor …; assay: AC-MS, mAb on M-PVA beads, QC2 serum, round 1
[3] = target: T1, human insulin-like growth factor …; assay: AC-MS, mAb on M-PVA beads, pooled pregnant serum
Text: (§1) Anti-IBP4 antibody evaluation and selection. A total of 8 hybridoma clones (1H9.B6, 5C11.A7, 7G11.H4, 3D4.E9, 1G3.A3, 8G4.G11, 5F10.B2, and 3D8.A11) were produced according to the “additional production of anti-IBP4 antibodies” methods disclosed in Example 1 and screened by AC-MS, shown in Table 10 below. Monoclonal antibodies from these clones purified by protein-G affinity chromatography were covalently coupled to M-PVA magnetic beads and used in AC-MS experiments using pooled pregnant serum. The 5B3.G9 anti-IBP4 antibody clone was included in this analysis for comparison to the performance of the additional IBP4 antibodies, as shown and italicized in Table 10 below. Table 10 includes a summary of the additional antibodies Response Ratios and shared epitope binding results as determined by the competitive binding assays of Example 3.

[4] = target: T1, human insulin-like growth factor …; assay: AC-MS, mAb on M-PVA beads, QC2 serum, round 2 (beads reused)
[5] = target: T1, human insulin-like growth factor …; assay: AC-MS, mAb on M-PVA beads, QC2 serum, round 3 (beads reused)
[6] = target: T1, human insulin-like growth factor …; assay: AC-MS, mAb on M-PVA beads, pooled pregnant serum, peptide …
Text: as §1

[7] = target: T2, human sex hormone-binding globulin (SHBG) (human, UniProt P04278 30-402, O-linked glycan at T36 (native glycosylated form)); assay: SPR (Biacore T100), mAb captured on anti-mouse IgG, SHBG antigen injected, 1:1 fit, assay 1
T2 construct: Purified human SHBG, the SHBG antigen of the SPR runs, or SHBG in human serum; also called SHBG protein
T2 sequence: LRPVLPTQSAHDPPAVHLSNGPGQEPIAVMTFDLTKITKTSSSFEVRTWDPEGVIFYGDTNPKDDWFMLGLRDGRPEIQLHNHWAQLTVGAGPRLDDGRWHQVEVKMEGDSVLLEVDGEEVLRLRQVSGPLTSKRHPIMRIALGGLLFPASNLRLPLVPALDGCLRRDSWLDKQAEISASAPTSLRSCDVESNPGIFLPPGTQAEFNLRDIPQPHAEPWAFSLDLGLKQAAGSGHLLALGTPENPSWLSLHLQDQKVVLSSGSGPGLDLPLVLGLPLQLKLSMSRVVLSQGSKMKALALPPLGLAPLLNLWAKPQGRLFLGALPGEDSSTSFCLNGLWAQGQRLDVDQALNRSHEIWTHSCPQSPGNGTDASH
Procedure: (§2) Surface plasmon resonance experiments were performed on a BiacoreT100 to characterize the anti-SHBG and anti-IBP4 antibodies. Anti-mouse-IgG antibody was amine coupled to ˜500 RU on a C1 sensor chip using standard NHS/EDC activation. Test monoclonal antibodies were captured on the anti-mouse-IgG surfaces. The binding for the Sex Hormone Binding Globulin Antigen to anti-SHBG variant antibodies 4G10.F8 and 13C9.E5 were measured in a multi-cycle kinetic mode. Binding studies were performed in PBS buffer+0.05% P20+3 mM EDTA at 25 degrees C. SHBG was captured for 1 minute at 200 nM and regenerated with 1/100 H3PO4 after each cycle. SHBG was captured to similar densities on 2 different flow cells followed by an injection of the SHBG antigen in a 3-fold titration series up to 600 nM over the two surfaces. The responses were processed by subtracting the buffer injection to correct for drift. The data sets fit well to a simple 1:1 interaction model using SCRUBBER (Biologic Software Pty Ltd). The antigen concentration series was tested three times over each surface, giving rise to the kinetic an affinity parameters summarized below.

[8] = target: T2, human sex hormone-binding globulin …; assay: SPR (Biacore T100), mAb captured on anti-mouse IgG, SHBG antigen injected, 1:1 fit, assay 2
Procedure: as §2

[9] = target: T2, human sex hormone-binding globulin …; assay: SPR (Biacore T100), mAb captured on anti-mouse IgG, SHBG antigen injected, 1:1 fit, assay 3
Procedure: as §2

[10] = target: T2, human sex hormone-binding globulin …; assay: SPR (Biacore T100), mAb captured on anti-mouse IgG, SHBG antigen injected, average of 3 assays
Procedure: as §2

[11] = target: T3, anti-IBP4 antibody clone variant 5B3.G9; assay: ECLIA, peptide competes with IBP4 for the antibody
T3 construct: Mouse monoclonal; variant form expressed in CHO cells; also called IBP4 (5B3.G9) V1; IBP4-5B3.G9
T3 sequence (heavy, as listed by the source, chain 1 of 2): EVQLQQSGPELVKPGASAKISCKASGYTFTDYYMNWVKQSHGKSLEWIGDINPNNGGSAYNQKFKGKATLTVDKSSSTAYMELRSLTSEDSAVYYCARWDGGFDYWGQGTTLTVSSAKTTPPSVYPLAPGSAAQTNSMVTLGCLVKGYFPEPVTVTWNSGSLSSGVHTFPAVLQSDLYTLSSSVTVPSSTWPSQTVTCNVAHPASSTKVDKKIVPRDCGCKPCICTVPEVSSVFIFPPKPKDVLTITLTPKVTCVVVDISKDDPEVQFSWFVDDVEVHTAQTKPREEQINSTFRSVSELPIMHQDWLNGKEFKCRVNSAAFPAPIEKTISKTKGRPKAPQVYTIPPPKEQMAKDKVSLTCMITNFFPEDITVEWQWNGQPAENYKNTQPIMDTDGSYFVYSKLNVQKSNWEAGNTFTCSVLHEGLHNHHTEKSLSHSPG
T3 sequence (light, as listed by the source, chain 2 of 2): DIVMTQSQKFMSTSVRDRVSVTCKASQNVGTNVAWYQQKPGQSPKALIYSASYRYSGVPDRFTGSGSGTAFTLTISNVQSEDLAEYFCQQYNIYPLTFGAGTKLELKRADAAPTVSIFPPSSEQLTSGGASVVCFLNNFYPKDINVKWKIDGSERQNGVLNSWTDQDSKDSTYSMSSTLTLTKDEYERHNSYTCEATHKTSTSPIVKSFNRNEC

[12] = target: T4, anti-IBP4 antibody clone variant 7D6.G4; assay: ECLIA, peptide competes with IBP4 for the antibody
T4 construct: Mouse monoclonal; variant form; also called IBP4 (7D6.G4) V2; IBP4-7D6.G4
T4 sequence (VH, as listed by the source, chain 1 of 2): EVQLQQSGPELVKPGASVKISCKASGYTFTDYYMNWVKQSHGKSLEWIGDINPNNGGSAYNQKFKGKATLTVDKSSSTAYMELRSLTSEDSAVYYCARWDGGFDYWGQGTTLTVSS
T4 sequence (VL, as listed by the source, chain 2 of 2): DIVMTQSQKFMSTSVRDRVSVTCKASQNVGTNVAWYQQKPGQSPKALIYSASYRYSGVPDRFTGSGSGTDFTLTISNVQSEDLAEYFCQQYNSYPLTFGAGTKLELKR

B1: anti-IBP4 antibody 3D4.E9 (antibody, mouse IgG2b, kappa, V domains shown)
VH: QVQLQQSGAELVRPGASVTLSCKASGYTFTDYEMHWVKQTPVHGLEWIGAIDPETGGAAYNQKFKGKAILTADKSSSTAYMELRSLTSEDSAVYYCTRARGSSSVYYFDYWGQGTTLTVSS
VL: DIVMTQSQKFMSTSVGDRVSVTCKASQNVGTNVAWYQQKPGQSPKALIYSTSYRYSGVPDRFTGSRSGTDFILTISNVQSEDLAEYFCQQYDSYPLTFGSGTKLEIKR
notes: Mouse hybridoma mAb raised against FL IBP4; also called IBP4-3D4.E9
Kd [1]: 8 nM | koff [1]: 0.00221 s⁻¹ | kon [1]: 270000 M⁻¹ s⁻¹ | t1/2 [1]: 5.23 min | ave RR [2]: 0.491 | ave IBP4 AC-MS RR [3]: 0.439 | ave RR [4]: 0.468 | ave RR [5]: 0.454 | Response Ratio [6]: 0.439

B2: anti-SHBG antibody clone variant 13C9.E5 (antibody, mouse IgG1, kappa, V domains shown)
VH: QIQLQQPGAELVKPGASVKMSCKASGYTFTGYWMHWVKQRPGQGLEWIGVIDPSDTYTNYNQKFRGKATLTVDTSSSTAYMQLSGLTSEDSAVYYCTRDPLVTADFDYWGQGTTLTVSS
VL: B1 VL with G30D, Q37R, T51A, Y55F, R66G, I72T, V78F, L96Y, S100G
notes: Mouse monoclonal; variant form; also called SHBG (13C9.E5) Anti SHBG v2; SHBG #16
Kd [7]: 0.415 nM | koff [7]: 4.54e-05 s⁻¹ | kon [7]: 109000 M⁻¹ s⁻¹ | Kd [8]: 0.765 nM | koff [8]: 7.94e-05 s⁻¹ | kon [8]: 104000 M⁻¹ s⁻¹ | Kd [9]: 1.27 nM | koff [9]: 0.000119 s⁻¹ | kon [9]: 94100 M⁻¹ s⁻¹ | Kd [10]: 0.8 nM | koff [10]: 8e-05 s⁻¹ | kon [10]: 103000 M⁻¹ s⁻¹

B4: G6 (peptide)
peptide: HPKQCHPALDGQRGK
binding result [11]: no binding (tested: about 7 ul of peptide) | binding result [12]: no binding (tested: about 7 ul of peptide)

B5: H3 (peptide)
peptide: VDRKTGVKLPGGLEP
binding result [11]: no binding (tested: about 7 ul of peptide) | binding result [12]: no binding (tested: about 7 ul of peptide)

B8: anti-IBP4 antibody 1G3.A3 (antibody, mouse IgG1)
heavy: QVQLQQSGAELVRPGASVTLSCKASGYTFTDYEMHWVKQTPVHGLEWIGAIDPETGGIAYNQKFRGKAILTADKSSSTAYMELRSLTSEDSAVYYCARNYGISSYYAVDYWGQGTSVTVSSAKTTPPSVYPLAPGSAAQTNSMVTLGCLVKGYFPEPVTVTWNSGSLSSGVHTFPAVLQSDLYTLSSSVTVPSSTWPSQTVTCNVAHPASSTKVDKKIVPRDCGCKPCICTVPEVSSVFIFPPKPKDVLTITLTPKVTCVVVDISKDDPEVQFSWFVDDVEVHTAQTKPREEQINSTFRSVSELPIMHQDWLNGKEFKCRVNSAAFPAPIEKTISKTKGRPKAPQVYTIPPPKEQMAKDKVSLTCMITNFFPEDITVEWQWNGQPAENYKNTQPIMDTDGSYFVYSKLNVQKSNWEAGNTFTCSVLHEGLHNHHTEKSLSHSPGK
light: DIVMTQSQKFMSTTVGERVSITCKASQNVGTAVAWYQQKPGQSPKLLIYSASNRYTGVPDRFTGSGSGTDFTLTISNMQSEDLADYVSQQYSSYPLTFGAGTKLELK
notes: Mouse hybridoma mAb raised against FL IBP4; also called IBP4-1G3.A3
Kd [1]: 22 nM | koff [1]: 0.0033 s⁻¹ | kon [1]: 160000 M⁻¹ s⁻¹ | t1/2 [1]: 3.5 min | ave RR [2]: 0.281 | ave IBP4 AC-MS RR [3]: 0.272 | ave RR [4]: 0.291 | ave RR [5]: 0.289 | Response Ratio [6]: 0.272

Continued, values first:

binding result [11]: binds | binding result [12]: binds
B3: G10 (peptide)
peptide: LDGQRGKCWCVDRKT

binding result [11]: binds | binding result [12]: binds
B6: G8 (peptide)
peptide: CHPALDGQRGKCWCV

binding result [11]: binds | binding result [12]: binds
B7: G9 (peptide)
peptide: PALDGQRGKCWCVDR
